According to the Human Domainome abundance scans (Beltran et al. 2025):
± gives the uncertainty stated by the source.

B1: Zinc finger homeobox protein 3, residues 2643 to 2698; numbered along this chain, Q15911 (parent)
chain: RLRTTITPEQLEILYQKYLLDSNPTRKMLDHIAHEVGLKKRVVQVWFQNTRARERK

Variants of: B1
Test: abundance fitness (aPCA) (normalised: wild type 0, dead -1); higher = more abundant; growth selection in yeast, the domain comes from the species named
Conditions: Homo sapiens

Variant | abundance fitness
RLRTTITPEQLEILYQKYLLDSNPTRKMLDHIAHEVGLKKRVVQVWFQNTRARERL [K56L] | -0.527 ± 0.29
RLRVTITPEQLEILYQKYLLDSNPTRKMLDHIAHEVGLKKRVVQVWFQNTRARERK [T4V] | -0.106 ± 0.092
RLRMTITPEQLEILYQKYLLDSNPTRKMLDHIAHEVGLKKRVVQVWFQNTRARERK [T4M] | 0.068 ± 0.14
RLRNTITPEQLEILYQKYLLDSNPTRKMLDHIAHEVGLKKRVVQVWFQNTRARERK [T4N] | -0.042 ± 0.2
RLRTTITPEQLEILYQKYLLDSNPTRKMLDHIAHEVGLKKRVRQVWFQNTRARERK [V43R] | -1.03 ± 0.11
RLRTTITPEQLEILYQKYLLDSNPTRKMLDHIAHEVGLKKRVGQVWFQNTRARERK [V43G] | -0.937 ± 0.11
RLRTTITPEQLEILYQKYLLDSNPTRKMLDHIAHEVGLKKRVMQVWFQNTRARERK [V43M] | -0.889 ± 0.15
RLRTTITPEQLEILYQKYLLDSNPTRKMLDHIAHEVGLKKRVSQVWFQNTRARERK [V43S] | -0.821 ± 0.11
RLRTTITPEQLEILYQKYLRDSNPTRKMLDHIAHEVGLKKRVVQVWFQNTRARERK [L20R] | -0.331 ± 0.077
RLRTTITPEQLEILYQKYLCDSNPTRKMLDHIAHEVGLKKRVVQVWFQNTRARERK [L20C] | -0.022 ± 0.12
RLRTTITPEQLEILYQKYLDDSNPTRKMLDHIAHEVGLKKRVVQVWFQNTRARERK [L20D] | -0.226 ± 0.16
RLRTTITPEQLEILYQKYLLDSNPTRKMLDHIAHEVGLKKRVVQVIFQNTRARERK [W46I] | -1.03 ± 0.38
RLRTTITPEQLEILYQKYLLDSNPTRKMLDHIAHEVGLKKRVVQVYFQNTRARERK [W46Y] | -0.261 ± 0.34
RLRTTITPEQLENLYQKYLLDSNPTRKMLDHIAHEVGLKKRVVQVWFQNTRARERK [I13N] | -0.287 ± 0.16
RLRTTITPEQLEILYQKYLLDSNPTRKMADHIAHEVGLKKRVVQVWFQNTRARERK [L29A] | -0.552 ± 0.099
RLRTTITPEQLEILYQKYLLDSNPTRKMLDHIAHEVGLKKRVVSVWFQNTRARERK [Q44S] | -0.044 ± 0.097
RLRTTITPEQLEILYQKYLLDSNPTRKMLDHIAHEVGLKKRVVVVWFQNTRARERK [Q44V] | -0.179 ± 0.085
RLRTTITPEQLEILYQKYLLDSNPTRKMLDHIAHEVGLKKRVVQVWFQNTRARARK [E54A] | -0.478 ± 0.072
RLRTTITPEQLEILYQKYLLDSNPTRKMLDHIAHEVGLKKRVVQVWFQNTRARIRK [E54I] | -0.197 ± 0.1
RLRTTITPEQLEILYQKYLLDSNCTRKMLDHIAHEVGLKKRVVQVWFQNTRARERK [P24C] | -0.96 ± 0.17
RLRTTITPEQLEILYQKYLLDSNQTRKMLDHIAHEVGLKKRVVQVWFQNTRARERK [P24Q] | -0.354 ± 0.14
RLRTTITPEQLEILYQKYLLDSNPTRKMLDHIAHEVGLKKRVVQVWFQNTLARERK [R51L] | 0.056 ± 0.1
RLRTTITPEQLFILYQKYLLDSNPTRKMLDHIAHEVGLKKRVVQVWFQNTRARERK [E12F] | -0.282 ± 0.13
RLRTTITPEQLNILYQKYLLDSNPTRKMLDHIAHEVGLKKRVVQVWFQNTRARERK [E12N] | -0.074 ± 0.18

Variant | abundance fitness
RLRTTITPEQLPILYQKYLLDSNPTRKMLDHIAHEVGLKKRVVQVWFQNTRARERK [E12P] | -0.87 ± 0.15
RLRTTITPEQLEILYQKYLLDSNPTRKMLDHIAHEVGLKKRVVQVWFQNTRDRERK [A52D] | 0.244 ± 0.12
RLRTTITPEQLEILYQKYLLDSNPTRKMLDHIAHEVGLKKRVVQVWFQNTRGRERK [A52G] | -0.037 ± 0.078
RLRTTITPEQLEILYIKYLLDSNPTRKMLDHIAHEVGLKKRVVQVWFQNTRARERK [Q16I] | -0.073 ± 0.26
RLRTTITPEQLEILYQKYLLDSNPTRKMLDHIQHEVGLKKRVVQVWFQNTRARERK [A33Q] | -0.845 ± 0.14
RLRTTITPEQLEILYQKYLLDSWPTRKMLDHIAHEVGLKKRVVQVWFQNTRARERK [N23W] | -0.155 ± 0.11
RLRTTITPEQLEILYQKYLLDSGPTRKMLDHIAHEVGLKKRVVQVWFQNTRARERK [N23G] | -0.276 ± 0.091
RLRTTATPEQLEILYQKYLLDSNPTRKMLDHIAHEVGLKKRVVQVWFQNTRARERK [I6A] | -0.298 ± 0.087
RLRTTMTPEQLEILYQKYLLDSNPTRKMLDHIAHEVGLKKRVVQVWFQNTRARERK [I6M] | 0.068 ± 0.094
RLRTTITPEQLEILYQKYLLDSNPTRDMLDHIAHEVGLKKRVVQVWFQNTRARERK [K27D] | 0.229 ± 0.15
RLRTTITPEQLEILYQKYLLDSNPTRRMLDHIAHEVGLKKRVVQVWFQNTRARERK [K27R] | -0.444 ± 0.078
RLRTTITPEQLEILYQKYLLDSNPTRKMLDHIAHEVGLKKRVVQCWFQNTRARERK [V45C] | -0.329 ± 0.12
RLRTTITPFQLEILYQKYLLDSNPTRKMLDHIAHEVGLKKRVVQVWFQNTRARERK [E9F] | -0.495 ± 0.077
RLRTTITPWQLEILYQKYLLDSNPTRKMLDHIAHEVGLKKRVVQVWFQNTRARERK [E9W] | -0.516 ± 0.11
RLRTTITPEQLEILYQKYLLGSNPTRKMLDHIAHEVGLKKRVVQVWFQNTRARERK [D21G] | -0.321 ± 0.087
RLRTTITPEQLEILYQKYLLFSNPTRKMLDHIAHEVGLKKRVVQVWFQNTRARERK [D21F] | -0.373 ± 0.23
RLRTTITPEQLEILTQKYLLDSNPTRKMLDHIAHEVGLKKRVVQVWFQNTRARERK [Y15T] | -0.007 ± 0.12
RLRTTITPEQLEILVQKYLLDSNPTRKMLDHIAHEVGLKKRVVQVWFQNTRARERK [Y15V] | -0.123 ± 0.081
RLRTTITPEQLEILHQKYLLDSNPTRKMLDHIAHEVGLKKRVVQVWFQNTRARERK [Y15H] | -0.152 ± 0.16
RLRTTITPEQLEILYQKYLLDSNPTRKMLDHIAHWVGLKKRVVQVWFQNTRARERK [E35W] | -0.509 ± 0.11
RLRTTITGEQLEILYQKYLLDSNPTRKMLDHIAHEVGLKKRVVQVWFQNTRARERK [P8G] | 0.193 ± 0.079
RLRTTITIEQLEILYQKYLLDSNPTRKMLDHIAHEVGLKKRVVQVWFQNTRARERK [P8I] | 0.993 ± 0.19
RLRTTITPEQSEILYQKYLLDSNPTRKMLDHIAHEVGLKKRVVQVWFQNTRARERK [L11S] | 0.022 ± 0.09
